Tests used:
[1] = biological target: T1, IL-23 (human, p19/p40 heterodimer) (Homo sapiens, UniProt Q9NPF7;P29460 SEQ:20-189,SEQ:23-328); assay: filter; +tRNA; conditions: tags: R&D Systems, carrier free
[2] = biological target: T2, IL-12 (human, p35/p40 heterodimer) (Homo sapiens, UniProt P29459;P29460 SEQ:57-253,SEQ:23-328); assay: filter; 1X PBS, tRNA, ssDNA, BSA, 30 min RT; conditions: label: 5'-32P; G4 (predicted)
Method: (§1) The clones were 5′end labeled with γ-³²P ATP, and were assayed for both IL-23 and IL-12 binding in a 3-point dot blot screen (0 nM, 20 nM, and 100 nM h-IL-23; 0 nM, 20 nM, and 100 nM h-IL-12) (data not shown). […] KD values were determined by fitting an equation describing a 1:1 RNA:protein complex to the resulting data (fraction aptamer bound=amplitude*([IL-23]/(KD+[IL-23]))+background binding) (KaleidaGraph v. 3.51, Synergy Software). Results of protein binding characterization for the higher affinity clones are tabulated in Table 13, and corresponding clone sequences are listed in Table 12.

[3] = biological target: T1, IL-23 (human, p19/p40 heterodimer); assay: filter; 1X PBS, tRNA, ssDNA, BSA, 30 min RT; conditions: tags: R&D Systems, carrier free; label: 5'-32P; G4 (predicted)
Method: as §1

[4] = biological target: T1, IL-23 (human, p19/p40 heterodimer); assay: filter; dot blot; DPBS with Ca and Mg, 0.1 mg/mL BSA, 30 min RT; conditions: tags: R&D Systems, carrier free, label: 5'-32P
Method: The dot blot binding assay previously described was used to characterize the relative potency of the majority of the aptamers synthesized. For KD determination, chemically synthesized aptamers were purified using denaturing polyacrylamide gel electrophoresis, 5′end labeled with γ-³²P ATP and were tested for direct binding to full human IL-23. An 8 point protein titration was used in the dot blot binding assay (either {100 nM, 30 nM, 10 nM, 3 nM, 1 nM, 300 pM, 100 pM, 0 pM} or {10 nM, 3 nM, 1 nM, 300 pM, 100 pM, 30 pM, 10 pM, 0 pM}) in Dulbecco's PBS (with Mg⁺⁺ and Ca⁺⁺) with 0.1 mg/mL BSA. KD values were calculated by fitting the equation y=(max/(1+K/protein))+yint using KaleidaGraph (KaleidaGraph v. 3.51, Synergy Software). Sequences of the ARC979 derivatives synthesized, purified and assayed for binding to IL-23 as well as the results of the protein binding characterization are tabulated below in Tables 29 and 30.

[5] = biological target: T2, IL-12 (human, p35/p40 heterodimer); assay: filter; tRNA
Method: Monitoring Progress of rRfY Selection. Dot blot binding assays were performed throughout the selections to monitor the protein binding affinity of the pools. Trace ³²P-labeled RNA was combined with a dilution series of h-IL-23 and incubated at room temperature for 30 minutes in 1×SHMCK (20 mM Hepes, 120 mM NaCl, 5 mM KCl, 1 mM MgCl₂, 1 mM CaCl₂, pH 7.4) plus 0.1 mg/mL tRNA for a final volume of 20 μL. The binding reactions were analyzed by nitrocellulose filtration using a Minifold I dot-blot, 96-well vacuum filtration manifold (Schleicher & Schuell, Keene, N.H.). A three-layer filtration medium was used, consisting (from top to bottom) of Protran nitrocellulose (Schleicher & Schuell), Hybond-P nylon (Amersham Biosciences) and GB002 gel blot paper (Schleicher & Schuell). RNA that is bound to protein is captured on the nitrocellulose filter, whereas the non-protein bound RNA is captured on the nylon filter. The gel blot paper was included simply as a supporting medium for the other filters. Following filtration, the filter layers were separated, dried and exposed on a phosphor screen (Amersham Biosciences, Piscataway, N.J.) and quantified using a Storm 860 Phosphorimager® blot imaging system (Amersham Biosciences).
When a significant positive ratio of binding of RNA in the presence of h-IL-23 versus in the absence of h-IL-23 was seen, the pools were cloned using a TOPO TA cloning kit (Invitrogen, Carlsbad, Calif.) according to the manufacturer's instructions. For the h-IL-23 and X-IL-23 selections, the Round 8 pool templates were cloned, and 32 individual clones from each selections were assayed in a 1-point dot blot screen (+/−75 nM h-IL-23, as well as a separate screen at +/−75 nM h-IL-12). For the PN-IL-23 selection, the Round 10 pool was cloned and sequenced, and 8 unique clones were assayed for protein binding in a 1-point dot blot screen (+/−200 nM h-IL-23 and a separate screen at +/−200 nM h-IL-12). Subsequently, the Round 10 PN-IL-23 pool was re-cloned for further sequences, as well as the R12 PN-IL-23 pool, and the clones were assayed for protein binding in a 1 point do blot screen (+/−100 nM h-IL-23 or +/−200 nM h-IL-12).

[6] = biological target: T1, IL-23 (human, p19/p40 heterodimer); assay: cell_activity; TransAM STAT3; conditions: tags: R&D Systems, carrier free
Method: In summary, the cell-based assay was conducted by isolating the peripheral blood mononuclear cells (PBMCs) from whole blood using a Histopaque gradient (Sigma, St. Louis, Mo.). The PBMCs were cultured for 3 to 5 days at 37° C./5% CO₂ in Peripheral Blood Medium (Sigma) which contains PHA, supplemented with IL-2 (100 units/mL) (R&D Systems, Minneapolis, Minn.), to generate PHA Blasts. To test IL-23 aptamers, the PHA Blasts were washed twice with 1×PBS, then serum starved for four hours in RPMI, 0.20% FBS. After serum starvation, approximately 2 million cells were aliquotted into appropriately labeled eppendorf tubes. hIL-23 at a final constant concentration of 3 ng/mL (R&D Systems, Minneapolis, Minn.) was combined with a dilution series of various IL-23 aptamers as described in Example 1, and the cytokine/aptamer mixture was added to the aliquotted cells in a final volume of 100 μl and incubated at 37° C. for 10-12 minutes. The incubation reaction was stopped by adding 1 mL of ice-cold PBS with 1.5 mM Na₃VO₄. Cell lysates were made using the lysis buffer provided by the TransAM™ STAT 3 assay following the manufacturer's instructions. FIG. 20 depicts a flow summary of the protocol used for the cell based assay.
Full length clones from the rRfY selection described in Example 1A, and select minimized rRfY clones that were described in Example 2A. 1, were tested using the TransAM™ STAT3 activation assay. Table 34 summarizes the cell based assay data for IL-23 full length aptamers generated from the rRfY selections described in Example 1A. 1, each compared to the activity of their respective parent (full length) clone.

[7] = biological target: T1, IL-23 (human, p19/p40 heterodimer); assay: filter; SHMCK, tRNA; conditions: tags: R&D Systems, carrier free
Procedure, shortened: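 Trace ³²P-labeled RNA incubated with a dilution series of h-IL-23 for 30 min at room temperature in 1×SHMCK (pH 7.4, 1 mM MgCl₂, 1 mM CaCl₂) plus 0.1 mg/mL tRNA. Bound RNA captured on nitrocellulose, free RNA on nylon; quantified by phosphorimaging. Clone screens used single points of 75, 100 or 200 nM IL-23 or IL-12.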

T2 sequence (P29459 23-219, chain 1 of 2): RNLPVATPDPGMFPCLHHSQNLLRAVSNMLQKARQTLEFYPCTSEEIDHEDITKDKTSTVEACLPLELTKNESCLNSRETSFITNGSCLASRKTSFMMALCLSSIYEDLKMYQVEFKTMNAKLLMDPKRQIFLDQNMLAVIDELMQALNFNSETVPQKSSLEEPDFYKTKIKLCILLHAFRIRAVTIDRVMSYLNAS
T2 sequence (P29460 23-328, chain 2 of 2): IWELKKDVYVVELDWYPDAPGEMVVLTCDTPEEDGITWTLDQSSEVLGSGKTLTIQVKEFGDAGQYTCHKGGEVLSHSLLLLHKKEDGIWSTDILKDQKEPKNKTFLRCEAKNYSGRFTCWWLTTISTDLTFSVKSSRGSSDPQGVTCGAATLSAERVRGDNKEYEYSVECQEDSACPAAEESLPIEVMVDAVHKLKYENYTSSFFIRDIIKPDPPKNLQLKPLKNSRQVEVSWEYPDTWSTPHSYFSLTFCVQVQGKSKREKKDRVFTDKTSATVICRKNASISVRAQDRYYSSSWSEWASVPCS
T1 sequence (Q9NPF7 20-189, chain 1 of 2): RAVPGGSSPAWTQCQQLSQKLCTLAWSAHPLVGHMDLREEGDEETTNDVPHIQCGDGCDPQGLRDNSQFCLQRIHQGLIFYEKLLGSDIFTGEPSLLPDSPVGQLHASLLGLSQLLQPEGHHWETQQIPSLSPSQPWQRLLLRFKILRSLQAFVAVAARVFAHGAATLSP
T1 sequence (P29460 23-328, chain 2 of 2): as the sequence (P29460 23-328, chain 2 of 2) above

| Binder | Kd [1] [nM] | Kd [4] [nM] | other results |
| --- | --- | --- | --- |
| GGCAAGGUAAUUGGGGAGUGCGGGCUGGG (mixed, deoxy A,G; 2'-OMe C,U) [ARC893] | 2860 |  |  |
| ARC612 (mixed, 2'-deoxy A and G, 2'-OMe C and U (dRmY)) RNA: GGGAGAGGAGAGAACGUUCUACAGGCAAGUAAUUGGGGAGUGCGGGCGGGGGGGUCGAUCGAUCGAUCAUCGAUG |  |  | Kd [2]: 41.7 nM; Kd [3]: 5.8 nM |
| GGUGGGGAGUGCGGGCGGGGGGUCGCC (mixed, deoxy A,G; 2'-OMe C,U) [ARC797] | 50 |  |  |
| GGCAAGGUAAUUGGGUAGUGAGGGCGGGG (mixed, deoxy A,G; 2'-OMe C,U) [ARC892] | 255 |  |  |
| GGCAAGUAAUUGGGGAGUGCGGGCGGGG (mixed, dRmY; 2'-OMe at two As and one G as printed in Table 29; 3'-idT) [ARC1469] |  | 49.8 |  |
| ACAGGCAAGUAAUUGGGGAGUGCGGGCGGGGUGU (mixed, ARC1544 sugars; PS at 17 linkages 5' of deoxy residues as printed in Table 29; 3'-idT [PS at 2-3, 3-4, 4-5, 6-7, 7-8, 8-9, 10-11, 11-12, 14-15, 17-18, 18-19, 19-20, 21-22, 25-26, 27-28, 28-29, 32-33; ARC1544 sugars (2'-deoxy/2'-OMe); 3'-inverted dT at 35]) [ARC1626] |  | 0.1 |  |
| ACAGGCAAGUAAUUGGGGAGUGCGGGCGGGGUGU (mixed, dAmCdAdGdGmCdAdAdGmUdAdAmUmUdGmGmGdGdAdGmUdGmCmGmG-s-dGmC-s-dG-s-dGmGmGmUdGmU-3T (d deoxy, m 2'-OMe, s PS, 3T idT) [PS at 25-26, 27-28, 28-29; 2'-OMe at 2,6,10,13,14,16,17,21,23,24,25,27,30,31,32,34; 2'-deoxy at other nt 1-33; 3'-inverted dT at 35]) [ARC1624] |  | 0.4 |  |
| ACAGGCAAGUAAUUGGGGAGUGCGGGCGGGGUGU (mixed, dRmY with 2'-OMe at G16, G17, G23, G24, G29, G30; 3'-idT) [ARC1544] |  | 0.9 |  |
| ACAGGCAAGUAAUUGGGGAGUGCGGGCGGGGUGU (mixed, mAmC-s-dAdGdGmC-s-dAmAmGmUmA-s-dAmUmU-s-dGmGmG-s-dG-s-dA-s-dGmU-s-dGmCmGmGmGmCmGmGmGmGmUmGmU-3T (d deoxy, m 2'-OMe, s PS, 3T idT) [PS at 2-3, 6-7, 11-12, 14-15, 17-18, 18-19, 19-20, 21-22; 2'-deoxy at 3,4,5,7,12,15,18,19,20,22; 2'-OMe at other nt 1-34; 3'-inverted dT at 35]) [ARC1756] |  | 0.5 |  |
| ACAGGCAAGUAAUUGGGGAGUGCGGGCGGGGUGU (mixed, dRmY; 2'-OMe G15; 3'-idT) [ARC1436] |  | 15.1 |  |
| CCAGGCAAGUAAUUGGGGAGUGCGGGCGGGGUGG (mixed, deoxy A,G; 2'-OMe C,U) [ARC980] | 139 |  |  |
| ACAGGCAAGUAAUUGGGGAGUGCGGGCGGGGUGU (mixed, dAmCdAdGdGmCdAdAdGmUdAdAmUmUdGmGmGdGdAdGmUdGmCmGmGdGmCdGdGmGmGmU-s-dGmU-3T (d deoxy, m 2'-OMe, s PS, 3T idT) [PS at 32-33; 2'-OMe at 2,6,10,13,14,16,17,21,23,24,25,27,30,31,32,34; 2'-deoxy at other nt 1-33; 3'-inverted dT at 35]) [ARC1625] |  | 0.4 |  |
| ACAGGCAAGUAAUUGGGGAGUGCGGGCGGGGUGU (mixed, dAmCdAdGdGmCdAdAdGmUdAdAmUmUdGmGmG-s-dG-s-dA-s-dGmU-s-dGmCmGmGdGmCdGdGmGmGmUdGmU-3T (d deoxy, m 2'-OMe, s PS, 3T idT) [PS at 17-18, 18-19, 19-20, 21-22; 2'-OMe at 2,6,10,13,14,16,17,21,23,24,25,27,30,31,32,34; 2'-deoxy at other nt 1-33; 3'-inverted dT at 35]) [ARC1623] |  | 0.2 |  |
| ACAGGCAAGUAAUUGGGGAGUGCGGGCGGGGUGU (mixed, dRmY; 2'-OMe A7; 3'-idT) [ARC1431] |  | 10 |  |
| ACAGGCAAGUAAUUGGGGAGUGCGGGCGGGGUGU (mixed, dRmY; 3'-idT) [ARC1386] |  |  | Kd ([4]; G4 (predicted)): 1 nM |
| GAUGUUGGCAAGUAAUUGGGGAGUGCGGGCGGGGUUCAUC (mixed, deoxy A,G; 2'-OMe C,U; 3'-idT) [ARC897] | 93 |  |  |
| CCAGGCAAGGUAAUUGGGGAGUGCGGGCGGGGUGG (mixed, deoxy A,G; 2'-OMe C,U) [ARC890] | 114 |  |  |
| ACAGGCAAGGUAAUUGGGGAGUGCGGGCGGGGUGU (mixed, deoxy A,G; 2'-OMe C,U) [ARC889] | 115 |  |  |
| GGCAAGUAAUUGGGGAGUGCGGGCGGGG (mixed, dRmY; 3'-idT) [ARC1468] |  | 10 |  |
| ARC614 (mixed, 2'-deoxy A and G, 2'-OMe C and U (dRmY)) RNA: GGGAGAGGAGAGAACGUUCUACAAGGCGGUACGGGGAGUGUGGGUUGGGGCCGGUCGAUCGAUCGAUCAUCGAUG |  |  | Kd [2]: 54.4 nM; Kd [3]: 3.1 nM |
| ARC627 (mixed, 2'-deoxy A and G, 2'-OMe C and U (dRmY)) RNA: GGGAGAGGAGAGAACGUUCUACAGGCAAGUAAUUGGGGAGUGCGGGCGGGGUGUCGAUCGAUCGAUCAUCGAUG |  |  | Kd [2]: 79.5 nM; Kd [3]: 7 nM |
| ARC626 (mixed, 2'-deoxy A and G, 2'-OMe C and U (dRmY)) RNA: GGGAGAGGAGAGAACGUUCUACAGGCAAGUAAUUGGGGAGUGCGGGCGGGGGGUCGAUCGAUCGAUCAUCGAUG |  |  | Kd [2]: 69.8 nM; Kd [3]: 10.1 nM |
| AMX86-H9 (ssRNA, 2'-F C,U) RNA: GGGAAAAGCGAAUCAUACACAAGAUGGUUCCCACGUGAAAGUGGCUAGCGAGUACCCCACUUAUGCUCCGCCAGAGACCAACCAAGGG |  |  | Kd [5]: 332 nM; IC50 [6]: 250 nM; Kd [7]: 105 nM |
| UAAUUGGGGAGUGCGGGCGGGGGGUCGAUCG (mixed, deoxy A,G; 2'-OMe C,U) [ARC796] | 106 |  |  |
| GGCAAGGUAAUUGGGAAGUGUGGGCGGGG (mixed, deoxy A,G; 2'-OMe C,U) [ARC891] | 177 |  |  |

From patent US20060193821, “Aptamers to the human IL-12 cytokine family and their use as autoimmune disease therapeutics” (published 2006)
